For assay [1], the target named is T1, CD28 (antigen of the affinity determinations) (human, UniProt P10747 19-152). The assay is described as follows: -; scFv VHVL, 1+1 Fab-scFv-Fc.
Assay [2] has as its target T1, CD28 (antigen of the affinity …). The experiment in a line: -; Fab, 2+1 CLC.
Assay [3] addresses T2, CD28-Fc-His protein (human, UniProt P10747 19-152). The experiment in a line: Octet; 1:1 Langmuir. Background: In BLI a coated tip is dipped into the sample, and binding shifts an interference pattern.
For assay [4], the target named is T2, CD28-Fc-His protein. The assay is described as follows: Octet; Steady State.
Assay [5] deals with T1, CD28 (antigen of the affinity …).
For assay [6], the target named is T3, B7H3 (antigen of the affinity statements) (human, UniProt Q5ZPR3 29-466).
T3 chain: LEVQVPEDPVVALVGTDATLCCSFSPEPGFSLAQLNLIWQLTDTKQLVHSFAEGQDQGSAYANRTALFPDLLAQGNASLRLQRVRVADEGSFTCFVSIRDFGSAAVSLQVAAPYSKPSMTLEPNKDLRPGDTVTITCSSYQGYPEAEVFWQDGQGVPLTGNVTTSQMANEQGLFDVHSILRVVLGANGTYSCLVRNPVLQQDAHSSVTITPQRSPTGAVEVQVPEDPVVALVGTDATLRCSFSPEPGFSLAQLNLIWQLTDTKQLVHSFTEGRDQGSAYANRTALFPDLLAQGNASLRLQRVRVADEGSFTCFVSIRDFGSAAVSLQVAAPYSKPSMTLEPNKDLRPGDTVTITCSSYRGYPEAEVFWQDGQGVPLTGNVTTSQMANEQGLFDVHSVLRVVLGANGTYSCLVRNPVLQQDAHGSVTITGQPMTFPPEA
The experiment in a line: -; monovalent KD.

Positions count from the first letter of the chain named. Like-named read-outs stand apart in the source and are kept apart here.

B1: H1_L1.71 (antibody, V domains shown)
VH: EVQLLESGGGLVQPGGSLRLSCAASGFTFSSYAMSWVRQAPGKGLEWVSTISGSGDSTYYADSVKGRFTISRDNSKNTLYLQMNSLRAEDTAVYYCAKSGPGLRQVGFDYWGQGTLVTVSS
VL: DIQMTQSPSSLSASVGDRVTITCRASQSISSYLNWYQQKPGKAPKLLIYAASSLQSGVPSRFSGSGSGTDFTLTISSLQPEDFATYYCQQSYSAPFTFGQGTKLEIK
Usually Kd stands for the equilibrium constant for the complex coming apart. In assay [1], B1 returned a Kd of 180 nM.

B2: H1.14_L1 (XENP31398) (antibody, V domains shown)
VH: B1 VH with A33Y
VL: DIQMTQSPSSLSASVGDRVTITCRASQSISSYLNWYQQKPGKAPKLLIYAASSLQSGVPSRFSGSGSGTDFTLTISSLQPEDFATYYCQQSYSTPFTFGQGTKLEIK
For the molecule B2, the dissociation constant (Kd) in assay [2] worked out at 62.8 nM.

B3: H1.1_L1.71 (antibody, V domains shown)
VH: B1 VH with A33Y
VL: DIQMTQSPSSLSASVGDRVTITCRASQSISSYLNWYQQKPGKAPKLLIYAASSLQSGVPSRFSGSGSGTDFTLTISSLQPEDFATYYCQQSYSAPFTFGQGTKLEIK
Regarding B3, binding in assay [1] was characterised by a dissociation constant (Kd) of 91.6 nM.

B4: XENP34389 (bispecific antibody)
heavy 1: EVQLLESGGGLVQPGGSLRLSCAASGFTFSNYYMAWVRQAPGKGLEWVSSISTGGGSTYYRDSVKGRFTISRDNSKSTLYLQMNSLRAEDTAVYYCTTDLSAIAATPFAYWGQGTLVTVSSASTKGPSVFPLAPSSKSTSGGTAALGCLVKDYFPEPVTVSWNSGALTSGVHTFPAVLQSSGLYSLSSVVTVPSSSLGTQTYICNVNHKPSDTKVDKKVEPKSCDKTHTCPPCPAPPVAGPSVFLFPPKPKDTLMISRTPEVTCVVVDVKHEDPEVKFNWYVDGVEVHNAKTKPREEEYNSTYRVVSVLTVLHQDWLNGKEYKCKVSNKALPAPIEKTISKAKGQPREPQVYTLPPSREEMTKNQVSLTCDVSGFYPSDIAVEWESDGQPENNYKTTPPVLDSDGSFFLYSKLTVDKSRWEQGDVFSCSVMHEALHNHYTQKSLSLSPGK
heavy 2: not shown
light: DIQMTQSPSSLSASVGDRVTITCRASQNIYTSLAWYQQKPGKAPKLLIYNAHSLQTGIPSRFSGSGSGADFTLTISSLQPEDFATYFCQQYYSGLTFGSGTKLEIKRTVAAPSVFIFPPSDEQLKSGTASVVCLLNNFYPREAKVQWKVDNALQSGNSQESVTEQDSKDSTYSLSSTLTLSKADYEKHKVYACEVTHQGLSSPVTKSFNRGEC
In the case of B4, the Kd with CD28-Fc-His protein [3] was found to be 790 nM; in the assay with CD28-Fc-His protein [4], 560 nM.

B5: XENP34732 (bispecific antibody)
heavy: B4 heavy 1 with M431L, N437S
scFv-Fc: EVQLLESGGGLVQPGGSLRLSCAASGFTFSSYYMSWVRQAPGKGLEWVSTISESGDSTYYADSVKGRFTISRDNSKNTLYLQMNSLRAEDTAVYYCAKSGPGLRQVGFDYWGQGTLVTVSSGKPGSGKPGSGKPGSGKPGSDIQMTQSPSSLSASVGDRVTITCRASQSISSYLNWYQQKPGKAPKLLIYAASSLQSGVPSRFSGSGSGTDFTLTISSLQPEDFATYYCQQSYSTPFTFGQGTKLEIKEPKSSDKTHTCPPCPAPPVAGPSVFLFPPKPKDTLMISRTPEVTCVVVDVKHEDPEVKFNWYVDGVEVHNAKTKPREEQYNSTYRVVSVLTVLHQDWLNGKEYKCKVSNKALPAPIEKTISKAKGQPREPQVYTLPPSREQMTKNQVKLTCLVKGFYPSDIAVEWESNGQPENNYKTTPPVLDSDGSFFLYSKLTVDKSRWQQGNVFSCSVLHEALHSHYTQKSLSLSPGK
light: B4 light
B5: the Kd in assay [5] is 370 nM; in assay [6], 8.1 nM.

B6: XENP34339 (bispecific antibody)
heavy 1: EVQLLESGGGLVQPGGSLRLSCAASGFTFSSYYMSWVRQAPGKGLEWVSTISESGDSTYYADSVKGRFTISRDNSKNTLYLQMNSLRAEDTAVYYCAKSGPGLRQVGFDYWGQGTLVTVSSASTKGPSVFPLAPSSKSTSGGTAALGCLVKDYFPEPVTVSWNSGALTSGVHTFPAVLQSSGLYSLSSVVTVPSSSLGTQTYICNVNHKPSDTKVDKKVEPKSCDKTHTCPPCPAPPVAGPSVFLFPPKPKDTLMISRTPEVTCVVVDVKHEDPEVKFNWYVDGVEVHNAKTKPREEEYNSTYRVVSVLTVLHQDWLNGKEYKCKVSNKALPAPIEKTISKAKGQPREPQVYTLPPSREEMTKNQVSLTCDVSGFYPSDIAVEWESDGQPENNYKTTPPVLDSDGSFFLYSKLTVDKSRWEQGDVFSCSVMHEALHNHYTQKSLSLSPGK
heavy 2: QVQLVQSGAEVKKPGASVKVSCKASGYIFTNNYMHWVRQAPGQGLEWMGIISPSVGRTAYAQKFQGRVTMTRDTSTSTVYMELSSLRSEDTAVYYCARGGGSSPRLDYWGQGTLVTVSSASTKGPSVFPLAPSSKSTSGGTAALGCLVKDYFPEPVTVSWNSGALTSGVHTFPAVLQSSGLYSLSSVVTVPSSSLGTQTYICNVNHKPSNTKVDKKVEPKSCGKPGSGKPGSQVQLVQSGAEVKKPGASVKVSCKASGYIFTNNYMHWVRQAPGQGLEWMGIISPSVGRTAYAQKFQGRVTMTRDTSTSTVYMELSSLRSEDTAVYYCARGGGSSPRLDYWGQGTLVTVSSASTKGPSVFPLAPSSKSTSGGTAALGCLVKDYFPEPVTVSWNSGALTSGVHTFPAVLQSSGLYSLSSVVTVPSSSLGTQTYICNVNHKPSNTKVDKKVEPKSCDKTHTCPPCPAPPVAGPSVFLFPPKPKDTLMISRTPEVTCVVVDVKHEDPEVKFNWYVDGVEVHNAKTKPREEQYNSTYRVVSVLTVLHQDWLNGKEYKCKVSNKALPAPIEKTISKAKGQPREPQVYTLPPSREQMTKNQVKLTCLVKGFYPSDIAVEWESNGQPENNYKTTPPVLDSDGSFFLYSKLTVDKSRWQQGNVFSCSVMHEALHNHYTQKSLSLSPGK
light: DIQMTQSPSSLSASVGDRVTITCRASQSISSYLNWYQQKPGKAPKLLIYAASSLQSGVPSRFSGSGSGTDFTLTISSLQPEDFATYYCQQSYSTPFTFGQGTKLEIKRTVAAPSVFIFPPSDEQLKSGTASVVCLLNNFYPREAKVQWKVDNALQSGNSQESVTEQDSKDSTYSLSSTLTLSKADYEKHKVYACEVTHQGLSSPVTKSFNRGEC
With B6, the Kd was found to be 96 nM in the assay with CD28-Fc-His protein [3] and 150 nM in the assay with CD28-Fc-His protein [4].

B7: XENP37808 (bispecific antibody)
heavy 1: B6 heavy 1 with E53G, M431L, N437S
heavy 2: B6 heavy 2 with M661L, N667S
light: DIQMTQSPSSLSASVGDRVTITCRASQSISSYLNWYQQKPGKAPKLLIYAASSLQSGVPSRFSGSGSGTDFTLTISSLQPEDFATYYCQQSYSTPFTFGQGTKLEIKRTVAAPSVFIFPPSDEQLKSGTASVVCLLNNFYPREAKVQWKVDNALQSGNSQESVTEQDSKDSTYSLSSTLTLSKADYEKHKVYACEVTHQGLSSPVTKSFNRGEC
On to B7, for which the Kd in assay [2] is 232 nM; in assay [5], 230 nM; in assay [6] it was 7.6 nM.

B8: XENP34398 (bispecific antibody)
heavy 1: B6 heavy 1 with M431L, N437S
heavy 2: B6 heavy 2 with M661L, N667S
light: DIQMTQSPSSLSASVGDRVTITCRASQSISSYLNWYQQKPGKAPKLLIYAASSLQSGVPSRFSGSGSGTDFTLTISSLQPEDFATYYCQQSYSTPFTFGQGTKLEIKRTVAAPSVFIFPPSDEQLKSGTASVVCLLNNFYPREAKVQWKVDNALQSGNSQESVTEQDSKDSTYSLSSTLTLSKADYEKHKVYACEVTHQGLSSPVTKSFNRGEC
On to B8, for which the Kd in assay [5] was determined as 63 nM; in assay [6], 7.6 nM.

B9: XENP37810 (bispecific antibody)
heavy 1: B6 heavy 1 with M431L, N437S
heavy 2: B6 heavy 2 with N32H, V55A, R57S, A59D, N264H, V287A, R289S, A291D, M661L, N667S
light: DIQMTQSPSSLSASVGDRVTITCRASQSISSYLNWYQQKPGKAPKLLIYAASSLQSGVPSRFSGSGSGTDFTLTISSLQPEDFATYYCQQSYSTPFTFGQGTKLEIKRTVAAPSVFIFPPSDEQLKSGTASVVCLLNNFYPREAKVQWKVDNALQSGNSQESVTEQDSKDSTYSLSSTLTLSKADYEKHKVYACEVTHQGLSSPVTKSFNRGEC
For B9, the affinity in assay [2], expressed as Kd, was 200 nM.

Source of the values: patent publication US20220098306A1 (published 2022).
